Patent US20150125386A1, “HUMANIZED ANTI-CEACAM5 ANTIBODY AND USES THEREOF” (IMMUNOMEDICS, INC., priority 2013, published 2015)

Key:
[1] = tested on: Capan 1 human pancreatic carcinoma; assay: In vivo therapy of athymic nude mice bearing Capan 1 pancreatic tumor xenografts with antibody-CL2A-SN-38 conjugates; conditions: Capan 1 s.c. xenograft, FIG. 1
Experimental: FIG. 1. In vivo therapy of athymic nude mice, bearing Capan 1 human pancreatic carcinoma, with antibody-CL2A-SN-38 conjugates.
(§1) The efficacy of drug-conjugated Class III anti-CEA antibody was investigated. Immunoconjugates comprising antibody-SN-38 conjugates were prepared as discussed in U.S. Pat. No. 7,999,083, the Figures and Examples sections of which are incorporated herein by reference. Immune-compromised athymic nude mice (female), bearing subcutaneous human pancreatic or colon tumor xenografts were treated with either specific CL2A-SN-38 conjugate or control conjugate or were left untreated. The therapeutic efficacies of the specific conjugates were observed.

[2] = tested on: advanced metastatic colon cancer; assay: Therapy of advanced metastatic colon cancer with anti-CEACAM5 immunoconjugate (Example 9); type: in vivo, human; conditions: 12 mg/kg every other week, irinotecan-unresponsive
Experimental: The patient is a person who fails prior therapies for metastatic colon cancer. The first line of therapy is FOLFIRINOX+AVASTIN® (built up in a stepwise manner) starting with IROX (Irinotecan+Oxaliplatin) in the first cycle. […] This is followed by surgery to remove tumor tissue. […] This leads to the initiation of the second line regimen (FOLFIRI+Cetuximab). […] Then RF ablation of liver metastases is performed, followed by continuation of adjuvant chemotherapy with FOLFIRINOX+Cetuximab, followed by maintenance Cetuximab for approximately one year. […] This leads to a wedge resection of the lung nodules. Subsequently FOLFIRI+Cetuximab is restarted and continued. Later CT scans show both lung and liver metastases.
At the time of administration of the hMN-14-SN-38 immunoconjugate, the patient has advanced metastatic colon cancer, with metastases of both lung and liver, which is unresponsive to irinotecan (camptothecin). The hMN-14-SN-38 immunoconjugate is administered at a dosage of 12 mg/kg, which is repeated every other week.
The effect of the antibody moiety in improved targeting of the camptothecin accounts for the efficacy of the SN-38 moiety in the cancer that had been previously resistant to unconjugated irinotecan.

[3] = tested on: rectal carcinoma; assay: Continuous infusion of labetuzumab-SN-38 in patient with liver metastases of rectal carcinoma (Example 8); type: in vivo, human
Experimental: The patient was previously resected for a rectal carcinoma and receives pre- and post-operative radiochemotherapy as per conventional treatment. […] They then receive a repeat continuous infusion therapy 5 weeks later, now for 3 weeks, at 1 mg/kg.

[4] = tested on: stage-IV metastatic colonic cancer; assay: Therapy of advanced colon cancer patient refractory to prior chemo-immunotherapy with IMMU-130 (Example 4); type: in vivo, human
Experimental: Thereafter, they were given courses of cetuximab, either alone or combined with FOLFIRI (leucovorin, 5-flurouracil, irinotecan) chemotherapy during the next year or more. […] The index lesions chosen by the radiologist for measuring tumor size change by computed tomography were the mid-lobe of the right lung and the liver metastases, both totaling 91 mm as the sum of their longest diameters at the baseline prior to IMMU-130 (anti-CEACAM5-SN-38) therapy.
This patient received doses of 16 mg/kg of IMMU-130 by slow IV infusion every other week for a total of 17 treatment doses.

[5] = tested on: LS174T human colon carcinoma; assay: In vivo therapy of athymic nude mice bearing LS174T colon carcinoma xenografts; conditions: LS174T s.c. xenograft, FIG. 2
Experimental: FIG. 2. In vivo therapy of athymic nude mice, bearing LS174T human colon carcinoma, with hMN-14-CL2A-SN-38 conjugate.
as §1

[6] = tested on: gastric adenocarcinoma; assay: Gastric cancer patient with stage IV metastatic disease treated with IMMU-130 (Example 6); type: in vivo, human
Experimental: The patient is a person who sought medical attention because of gastric discomfort and pain related to eating for about 6 years, and with weight loss during the past 12 months. […] The patient has their gastric tumor resected, and then has baseline CT measurements of their metastatic tumors.
The patient is then given experimental therapy with IMMU-130 (anti-CEACAM5-SN-38) on a weekly schedule of 8 mg/kg. […] The patient then undergoes a CT study to measure their metastatic tumor sizes and to view the original area of gastric resection.

[7] = tested on: metastatic colonic cancer (Stage IV); assay: Therapy of a patient with advanced colonic cancer with IMMU-130 (Example 5); type: in vivo, human
Experimental: This patient is a person initially diagnosed with metastatic colonic cancer (Stage IV). […] Their baseline CEA titer just before this therapy is 15 ng/mL. […] The patient continues their investigational therapy.

[8] = tested on: GW-39 human colonic tumor; assay: In vivo therapy of lung metastases of GW-39 human colonic tumors in nude mice; conditions: 250 μg, q4d×8, therapy initiated 14 days after i.v. tumor injection
Experimental: FIG. 3. Survival curves of hMN14-CL-SN-38 treated mice bearing GW-39 lung metastatic disease.
Alternative immunoconjugates, comprising different linkers between the antibody and the SN-38, were prepared as disclosed in U.S. Pat. No. 7,591,994, the Figures and Examples section of which are incorporated herein by reference. A lung metastatic model of colonic carcinoma was established in nude mice by i.v. injection of GW-39 human colonic tumor suspension, and therapy was initiated 14 days later. Specific anti-CEACAM5 antibody conjugates, hMN14-CL1-SN-38 and hMN14-CL2-SN-38, as well as nontargeting anti-CD22 antibody control conjugates, hLL2-CL1-SN-38 and hLL2-CL2-SN-38 and equidose mixtures of hMN14 and SN-38 were injected at a dose schedule of q4d×8, using different doses. […] The dose-responsiveness of therapeutic effect of conjugated antibody was also observed.

[9] = tested on: metastatic colon cancer; assay: Treatment of metastatic colon cancer with P2PDox conjugate of Class III anti-CEA antibody (Example 11); type: in vivo, human; conditions: 8 weeks from treatment begin
Experimental: A prodrug form of 2-pyrrolinodoxorubicin, referred to herein as “P2PDox”, is prepared and conjugated to the hMN-14 antibody as disclosed in U.S. patent application Ser. No. 14/175,089, the Figures and Examples sections of which are incorporated herein by reference.
A person with metastatic colon cancer (3-5 cm diameters) to their left and right liver lobes, as well as a 5 cm metastasis to their right lung, and an elevated blood CEA value of 130 ng/mL, is treated with a 150 mg dose of hMN-14 Class III anti-CEA antibody conjugated to P2PDox at 4 drug molecules per IgG, administered by slow intravenous infusion every other week for 4 doses. […] At the same time, their blood CEA titer is reduced to 30 ng/mL. Repeated courses of therapy continue as their neutropenia normalizes.

[10] = tested on: LS174T human colon adenocarcinoma; assay: Biodistribution of 131I-labelled humanized MN-14 IgG in nude mice bearing human colon cancer; type: in vivo
Experimental: The biodistribution of labeled humanized MN-14 IgG in nude mice bearing human colon cancer was determined. For radiolocalization studies, at 4-5 weeks female athymic mice (nu/nu, Harlan, Indianapolis, Ind.) were given s.c. 0.2 ml of a 10% suspension of LS174T human colon adenocarcinoma prepared from a xenograft serially propagated in an athymic mouse (Sharkey et al., Cancer Res., 50: 828-34 (1990)). After waiting 2 weeks for tumor development, the mice were injected i.v. with 20 μCi (about 2 μg) of ^131I-labelled humanized MN-14 antibodies. Groups of 4-5 mice were sacrificed at intervals thereafter, and radioactivity localized in tissues. […] Tumor:nontumor ratios were excellent.

[11] = compared with rituximab; cited from earlier work
[12] = 131I-labelled, i.v., nude mice bearing LS174T

Substance: IMMU-130
- therapeutic efficacy [1]: better efficacies than control hA20-CL2A-SN-38 conjugate
- response by RECIST criteria [2]: partial response
- liver metastases by CT ([3]; continuous infusion 2 mg/kg over 17 days, then 1 mg/kg for 3 weeks, three weeks later): 1 of the liver metastases has disappeared
- blood CEA titer ([3]; three weeks after second infusion, 6.3 ng/mL before): 2.4 ng/mL
- nausea and vomiting ([3]; while under therapy): grade 2
- neutropenia ([3]; while under therapy): grade 2
- side effects (nausea, diarrhea, fatigue) ([4]; 16 mg/kg IV every other week, after the first treatment and treatments 4 and 5): grade 1 nausea, diarrhea and fatigue
- duration of fatigue after the first infusion ([4]; 16 mg/kg every other week): 2 weeks
- duration of nausea, diarrhea and occasional vomiting ([4]; 16 mg/kg every other week): 2 to 3 days
- alopecia ([4]; 16 mg/kg every other week, after treatment 3): grade 2
- change of sum of index lesions (CT) from baseline ([4]; after 4 treatments, 16 mg/kg every other week): 28.6%
- reduction of sum of index lesions (CT) from baseline ([4]; after 8 treatments): 40.6%
- response according to RECIST criteria ([4]; after 8 treatments): partial remission
- anti-labetuzumab antibody in blood ([4]; after 16 doses): none was detected
- plasma CEA titer ([4]; after the third therapy dose, baseline 12.6 ng/mL): 2.1 ng/mL
- index lesions less than baseline (CT) ([4]; another 2 months after the 8-treatment evaluation): 31.9%
- therapeutic efficacy [5]: more efficacious than non-treatment
- diarrhea ([6]; 8 mg/kg weekly, after 3 weeks): grade 1
- neutropenia ([6]; 8 mg/kg weekly, after 3 weeks): grade 2
- decrease of the sum of the metastatic lesions (CT, RECIST) vs. baseline ([6]; 8 mg/kg weekly, first CT study on therapy): 23%
- decrease of the sum of all metastatic lesions (CT) ([6]; after a total of 13 infusions): 41%
- response by RECIST ([6]; after a total of 13 infusions): partial response
- CEA titer ([6]; at first CT study, pre-IMMU-130 baseline 14.5 ng/mL): 7.2 ng/mL
- blood CEA ([6]; last measurement, after maintenance therapy every third week): 4.8 ng/mL
- tolerability ([7]; 6 mg/kg twice weekly for 2 weeks, one week rest, more than 20 doses): tolerated very well, without any major hematological or non-hematological toxicities
- shrinkage of the index tumor lesions ([7]; 8-week evaluation): 21%
- ascites and pleural effusion ([7]; 13 weeks): both decrease
- shrinkage of the index tumor lesions ([7]; 13 weeks): 27%
- plasma CEA titer ([7]; within 2 months of therapy, baseline 15 ng/mL): 1.3 ng/mL

Substance: hLL2-CL1-SN-38: nontargeting anti-CD22 antibody control conjugate
- median survival [8]: 56 days

Substance: hLL2-CL2-SN-38: nontargeting anti-CD22 antibody control conjugate
- median survival [8]: 77 days

Substance: hMN-14 Class III anti-CEA antibody conjugated to P2PDox
- reduction of the total mean diameters of the 3 target lesions (CT) ([9]; 150 mg every other week for 4 doses): 25%
- response by RECIST1.1 criteria [9]: good stable disease response
- blood CEA titer ([9]; 130 ng/mL before): 30 ng/mL

Substance: hMN-14: humanized Class III anti-CEA (anti-CEACAM5) antibody; heavy and light chains SEQ ID NO:1 and SEQ ID NO:2
- time of maximum tumor accretion [10, 12]: ≤ 2 days
- tumor accretion of the antibody [10, 12]: excellent tumor accretion
- Tumor:nontumor ratios ([10]; 131I-labelled, nude mice bearing LS174T): excellent
- uptake by the spleen ([10]; compared with mMN-14): higher uptake of hMN-14 by the spleen than there was of mMN-14
- blood clearance ([10]; compared with parental mMN-14): more rapid than the parental mMN-14 antibody

Substance: hRS7-CL2A-SN-38
- therapeutic efficacy [1]: better efficacies than control hA20-CL2A-SN-38 conjugate

Substance: veltuzumab: humanized IgG1 antibody against CD20
- immunogenicity in subjects [11]: less immunogenic in subjects than rituximab
